Substitutions are numbered along the chain they refer to. Read-outs that look alike come from different tables or passages of the source.

The target of assay [1] is T1, mouse Galectin-9 (Gal9) (mouse, UniProt O08573-2 2-322, limits assumed).
T1 construct: also called mouse Gal9
Put plainly: solution equilibrium assay (SEA), mouse Gal9.

The target in assay [2] is T2, human Galectin-9 (Gal9) (human, UniProt O00182-2 1-323, limits assumed).
T2 construct: also called human Gal9
Put plainly: SPR.

Assay [3] deals with T3, Gal9 as added in the T-cell apoptosis and TIM-3 dimerization assays (species not stated). Put plainly: cell-based or functional assay.
For assay [4], the target named is T2, human Galectin-9 (Gal9). Put plainly: solution equilibrium assay (SEA), human Gal9.
In assay [5] the target is T2, human Galectin-9 (Gal9). The assay can be described thus: solution equilibrium assay (SEA), human Gal9. This is another data set of the same source.
The target of assay [6] is T2, human Galectin-9 (Gal9). Put plainly: SPR. This is another data set of the same source.
The target of assay [7] is T1, mouse Galectin-9 (Gal9). Put plainly: solution equilibrium assay (SEA), mouse Gal9. The source holds these as a separate data set.
Assay [8] deals with T3, Gal9 as added in the T-cell apoptosis …. The assay can be described thus: cell-based or functional assay. This is another data set of the same source.
Assay [9] shares this target. The assay can be described thus: cell-based or functional assay. This is another data set of the same source.
Assay [10] has the same target. Put plainly: cell-based or functional assay. This is another data set of the same source.

T2 sequence (O00182 other isoform, or with tags, fused parts or gaps limits assumed): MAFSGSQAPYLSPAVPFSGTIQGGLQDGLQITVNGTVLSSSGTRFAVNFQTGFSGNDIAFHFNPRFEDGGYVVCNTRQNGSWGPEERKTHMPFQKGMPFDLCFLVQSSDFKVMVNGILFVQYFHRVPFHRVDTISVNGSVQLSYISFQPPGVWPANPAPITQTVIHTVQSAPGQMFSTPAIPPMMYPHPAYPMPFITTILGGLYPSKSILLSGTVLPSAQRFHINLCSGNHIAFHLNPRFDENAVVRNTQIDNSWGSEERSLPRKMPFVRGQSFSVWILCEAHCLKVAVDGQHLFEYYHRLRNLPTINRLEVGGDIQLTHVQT
T3 sequence (O00182 whole entry): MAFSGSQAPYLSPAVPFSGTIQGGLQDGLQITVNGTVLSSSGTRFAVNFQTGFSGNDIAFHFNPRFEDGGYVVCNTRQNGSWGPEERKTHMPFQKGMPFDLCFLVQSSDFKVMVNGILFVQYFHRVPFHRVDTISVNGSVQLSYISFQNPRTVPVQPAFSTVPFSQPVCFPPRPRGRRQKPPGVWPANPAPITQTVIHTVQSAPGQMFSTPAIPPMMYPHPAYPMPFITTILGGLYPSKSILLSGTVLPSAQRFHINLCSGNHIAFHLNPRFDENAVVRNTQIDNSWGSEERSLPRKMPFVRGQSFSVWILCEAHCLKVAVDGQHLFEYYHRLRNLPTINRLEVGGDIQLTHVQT
T1 sequence (O08573 other isoform, or with tags, fused parts or gaps limits assumed): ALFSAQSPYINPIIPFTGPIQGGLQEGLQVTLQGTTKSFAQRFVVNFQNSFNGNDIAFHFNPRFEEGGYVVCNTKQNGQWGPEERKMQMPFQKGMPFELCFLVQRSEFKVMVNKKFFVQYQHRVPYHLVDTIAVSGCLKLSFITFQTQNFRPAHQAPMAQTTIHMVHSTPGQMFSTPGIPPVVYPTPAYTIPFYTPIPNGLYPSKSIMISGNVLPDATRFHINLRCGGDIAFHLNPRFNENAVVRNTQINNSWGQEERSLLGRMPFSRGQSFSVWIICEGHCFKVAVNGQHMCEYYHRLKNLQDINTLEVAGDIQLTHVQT

B1: antibody A (Ab A), HFB9-2hz11, parental humanized anti-Gal9 antibody (antibody, V domains shown)
VH: QVQLVQSGAEVKKPGASVKVSCKASGYTFTEYTIHWVRQAPGQGLEWMGWFYPGSGSTEYAQKFQGRVTMTADTSISTAYMELSRLRSDDTAVYFCERHGGYDGFDYWGQGTTVTVSS
VL: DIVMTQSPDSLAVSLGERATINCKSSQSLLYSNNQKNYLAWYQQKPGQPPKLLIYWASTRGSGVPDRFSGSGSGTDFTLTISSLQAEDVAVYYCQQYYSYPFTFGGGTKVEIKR
notes: also called antibody Ab A
Broadly, the Kd is the constant that tells how readily two partners part at equilibrium. The low end stands for a tighter complex, the high end for a looser complex. In general, koff refers to the first-order rate constant of dissociation. What is called kon is a measure of how fast the partners come together. The low end stands for slower complex formation, the high end for faster complex formation. For B1, the Kd in assay [1] amounted to 49 nM; in assay [2] it was 4.9 nM; in [4], 3.1 nM; in [5], 3.1 nM; in assay [6], 7.18 nM; in assay [7], 49 nM. Also, the results for the koff in assay [2] and in assay [6] were 0.00077 s⁻¹ and 0.0099 s⁻¹, respectively. For the same molecule, the kon amounted to 160000 M⁻¹ s⁻¹ in assay [2] and 1.4e+06 M⁻¹ s⁻¹ in assay [6]. Also, the “IC50 of reducing Gal9-induced CD4+ T cell apoptosis” value in assay [3] is 18.7 nM.

B2: antibody 003 (Ab 003), affinity matured anti-Gal9 antibody (antibody, V domains shown)
VH: B1 VH with T28P, T30S, E31S, R98V
VL: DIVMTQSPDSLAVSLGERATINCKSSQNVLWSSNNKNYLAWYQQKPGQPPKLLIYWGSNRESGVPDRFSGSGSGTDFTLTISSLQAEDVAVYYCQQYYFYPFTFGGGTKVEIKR
notes: Full HC/LC entries; they may hold a signal peptide
On to B2, for which, in assay [8], the “IC50 (read off the curve), inhibition of Gal9-induced TIM-3 dimerization” value is ~20 nM.

B3: antibody 001 (Ab 001), affinity matured anti-Gal9 antibody (antibody, V domains shown)
VH: B1 VH with T28E, E59W
VL: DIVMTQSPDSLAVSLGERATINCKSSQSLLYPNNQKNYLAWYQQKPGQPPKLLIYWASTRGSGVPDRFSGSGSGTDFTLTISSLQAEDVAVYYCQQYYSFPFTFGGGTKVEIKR
notes: as for B2
In the case of B3, in [8], the “IC50 (read off the curve), inhibition of Gal9-induced TIM-3 dimerization” value was ~20 nM and the “IC50, inhibition of Gal9-induced TIM-3 dimerization (RLU, enzyme fragment complementation)” value worked out at 25 nM. Also, in assay [3], the “IC50 of reducing Gal9-induced CD4+ T cell apoptosis” value stood at 1.9 nM. Also, in assay [9], the “IC50 (read off the curve), inhibition of Gal9-induced CD4+ T cell apoptosis” value was ~6 nM and the “IC50, inhibition of Gal9-induced CD4+ T cell apoptosis (% AnnexinV+PI+ cells)” value was found to be 6.1 nM. In assay [10], the “IC50, inhibition of Gal9-induced CD8+ T cell apoptosis (% AnnexinV+PI+ cells)” value turned out to be 1.34 nM.

The values are drawn from patent US20260028407A1 (FIBROGEN, published 2026).
